Molecular target: Recombinant Cx43CT (carboxyl terminal domain of rat connexin43, residues 255-382, preceded by GPLG) (rat) (UniProt P08050)
Test: SPR, peptide 1.0 mM

Sequence of Recombinant Cx43CT (carboxyl terminal domain of rat connexin43, residues 255-382, preceded by GPLG) (rat) (P08050 other isoform, or with tags, fused parts or gaps limits assumed): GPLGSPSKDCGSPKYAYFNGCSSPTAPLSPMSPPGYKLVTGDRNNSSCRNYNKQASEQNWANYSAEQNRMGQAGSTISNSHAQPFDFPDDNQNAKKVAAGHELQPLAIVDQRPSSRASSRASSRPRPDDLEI

Question: How did the Response Dose (arbitrary units) turn out when Peptide 2502, AcRNP-NH2 was run?
Answer: Its Response Dose (arbitrary units) is 4.6.

Source: US20090075291A1, “PEPTIDE-BASED REGULATION OF GAP JUNCTIONS” (The Research Foundation of State University of New York, priority 2006, published 2009)
